The text below walks through data of patent publication US20190185532A1 (UNIVERSITY OF BIRMINGHAM, published 2019).

In the experiment the target is T1, MMRN2 (endogenous, HUVEC) (human, UniProt Q9H8L6 23-949).
T1 construct: Endogenous protein in HUVEC lysates (co-immunoprecipitation); also called multimerin-2
T1 sequence (looked up): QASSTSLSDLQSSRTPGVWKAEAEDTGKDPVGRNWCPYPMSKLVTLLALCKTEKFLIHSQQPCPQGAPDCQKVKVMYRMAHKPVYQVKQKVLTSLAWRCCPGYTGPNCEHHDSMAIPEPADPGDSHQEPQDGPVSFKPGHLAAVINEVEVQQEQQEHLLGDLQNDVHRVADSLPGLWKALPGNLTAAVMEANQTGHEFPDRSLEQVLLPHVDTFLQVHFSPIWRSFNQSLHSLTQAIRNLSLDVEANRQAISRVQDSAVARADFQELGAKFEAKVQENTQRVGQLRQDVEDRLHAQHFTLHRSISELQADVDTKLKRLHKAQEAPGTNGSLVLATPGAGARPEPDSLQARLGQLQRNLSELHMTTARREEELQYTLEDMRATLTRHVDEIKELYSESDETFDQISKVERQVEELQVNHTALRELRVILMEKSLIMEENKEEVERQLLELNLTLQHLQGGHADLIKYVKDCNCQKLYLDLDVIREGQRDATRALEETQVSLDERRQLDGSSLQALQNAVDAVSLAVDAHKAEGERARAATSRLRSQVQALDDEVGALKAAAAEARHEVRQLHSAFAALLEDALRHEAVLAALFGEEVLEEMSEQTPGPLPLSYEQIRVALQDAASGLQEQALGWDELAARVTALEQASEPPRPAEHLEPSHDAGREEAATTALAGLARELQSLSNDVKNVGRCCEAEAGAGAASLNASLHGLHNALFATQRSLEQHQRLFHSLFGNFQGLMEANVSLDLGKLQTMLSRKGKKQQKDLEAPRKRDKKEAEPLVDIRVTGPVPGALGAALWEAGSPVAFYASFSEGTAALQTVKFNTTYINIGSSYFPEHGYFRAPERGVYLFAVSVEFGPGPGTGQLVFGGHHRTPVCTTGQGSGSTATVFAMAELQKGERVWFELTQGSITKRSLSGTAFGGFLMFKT
Description: flow cytometry on HUVEC. The method, then: FIG. 3. A distinct region of MMRN2 binds CLEC14A in the C-type lectin domain. (A) CLEC14A-ECD-Fc was used to pull down MMRN2^FL from HEK293T transfected lysates. hCLEC14A-ECD-Fc was pre-incubated with either PBS, mouse control IgG, or C1-5. […] (B) Flow cytometry analysis of CLEC14A-ECD-Fc binding to HUVEC surface. CLEC14A-ECD-Fc was pre-incubated with same conditions as in pull downs. […] Mann-Whitney test *p<0.05 n=4 error bars represent standard error mean (SEM). (C) HEK293T transfected with CLEC14A domain deletions were lysed and far western blotted with MMRN2^FL under non-reduced conditions. Upon detection of the MMRN2^FL His tag, MMRN2 binding is observed in all mutants except those lacking the CTLD or sushi domains. CLEC14A blot was included to show expression of each mutant protein. (D) Flow cytometry analysis of HEK293T transfected with chimera 1 CLEC14A^{THBD(CTLD)} or chimera 2 CLEC14A^{THBD(sushi)}. […]
HUVEC or transfected HEK293T cells were detached from tissue culture plates using cell dissociation buffer or scraped and 5×10⁵ cells were stained with 20 ug/mL of antibody of interest or 20 μg/mL of recombinant protein. […] Samples were analysed on a FACSCalibur machine (BD Biosciences). […] Isotype control staining or human Fc alone was used as background fluorescence and this was subtracted from the geometric mean fluorescence intensity of each sample. […]

B1: CLEC14A-ECD-Fc (human CLEC14A extracellular domain fused to an Fc tag) (Fc fusion)
chain: EHPTADRAGCSASGACYSLHHATMKRQAAEEACILRGGALSTVRAGAELRAVLALLRAGPGPGGGSKDLLFWVALERRRSHCTLENEPLRGFSWLSSDPGGLESDTLQWVEEPQRSCTARRCAVLQATGGVEPAGWKEMRCHLRANGYLCKYQFEVLCPAPRPGAASNLSYRAPFQLHSAALDFSPPGTEVSALCRGQLPISVTCIADEIGARWDKLSGDVLCPCPGRYLRAGKCAELPNCLDDLGGFACECATGFELGKDGRSCVTSGEGQPTLGGTGVPTRRPPATATSPVPQRTWPIRVDEKLGETPLVPEQDNSVTSIPEIPRWGSQSTMSTLQMSLQAESKATITPSGSVISKFNSTTSSATPQAFDSSS
notes: Expressed in HEK293T cells; also called hCLEC14A-ECD-Fc; C14A-Fc; not shown: human IgG Fc tag
With B1, the binding result was “binds”.
